Blank lines part the entries; values can stand above or below the substance they belong to.
What was measured:
CD19 = CD19 (UniProt P15391); test: cell-based or functional assay
[1] = molecular target: CD19 CAR with CD34 spacer #C3 (human); test: MACS selection of transduced Jurkat cells with bead-labelled antibody, flow cytometry of fractions
[2] = molecular target: CD19 CAR with CD34 spacer #C7 (human); test: as above
[3] = molecular target: CD19 CAR with CD34 spacer #C5 (human); test: as above
Chain of CD19 CAR with CD34 spacer #C5 (human) (P28906 42-110): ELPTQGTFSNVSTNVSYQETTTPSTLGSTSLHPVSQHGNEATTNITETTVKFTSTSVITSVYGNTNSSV

[4] = molecular target: CD19 CAR with CD34 spacer #C4 (human); test: as above
Chain of CD19 CAR with CD34 spacer #C4 (human) (P28906 32-90): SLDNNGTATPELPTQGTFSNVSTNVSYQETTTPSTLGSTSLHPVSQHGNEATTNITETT

[5] = molecular target: CD19 CAR with CD34 spacer #C2 (human); test: as above
Chain of CD19 CAR with CD34 spacer #C2 (human) (P28906 32-63): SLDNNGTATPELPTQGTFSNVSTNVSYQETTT

[6] = molecular target: CD19 CAR with NGFR/CD271 spacer #N4; test: as above
Chain of CD19 CAR with NGFR/CD271 spacer #N4 (P08138 66-227): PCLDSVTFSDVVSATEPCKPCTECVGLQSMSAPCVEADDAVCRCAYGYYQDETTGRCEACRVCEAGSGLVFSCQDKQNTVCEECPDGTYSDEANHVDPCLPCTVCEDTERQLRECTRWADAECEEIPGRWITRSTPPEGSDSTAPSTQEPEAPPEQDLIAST

[7] = molecular target: CD19 CAR with NGFR/CD271 spacer #N3; test: as above
Chain of CD19 CAR with NGFR/CD271 spacer #N3 (P08138 108-227): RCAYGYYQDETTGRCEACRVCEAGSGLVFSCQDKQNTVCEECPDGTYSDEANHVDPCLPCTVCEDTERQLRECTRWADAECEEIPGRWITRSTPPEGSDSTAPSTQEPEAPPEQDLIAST

Chain of CD19 CAR with CD34 spacer #C7 (human) (P28906 42-220): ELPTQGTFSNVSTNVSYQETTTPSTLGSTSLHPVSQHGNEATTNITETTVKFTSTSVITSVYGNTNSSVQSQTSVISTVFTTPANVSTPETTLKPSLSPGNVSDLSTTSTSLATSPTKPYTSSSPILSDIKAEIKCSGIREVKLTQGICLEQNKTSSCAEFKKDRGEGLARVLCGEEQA
Chain of CD19 CAR with CD34 spacer #C3 (human) (P28906 42-90): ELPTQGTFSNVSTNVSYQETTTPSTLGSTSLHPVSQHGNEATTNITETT
Chain of UniProt P15391 (P15391 20-556 limits assumed): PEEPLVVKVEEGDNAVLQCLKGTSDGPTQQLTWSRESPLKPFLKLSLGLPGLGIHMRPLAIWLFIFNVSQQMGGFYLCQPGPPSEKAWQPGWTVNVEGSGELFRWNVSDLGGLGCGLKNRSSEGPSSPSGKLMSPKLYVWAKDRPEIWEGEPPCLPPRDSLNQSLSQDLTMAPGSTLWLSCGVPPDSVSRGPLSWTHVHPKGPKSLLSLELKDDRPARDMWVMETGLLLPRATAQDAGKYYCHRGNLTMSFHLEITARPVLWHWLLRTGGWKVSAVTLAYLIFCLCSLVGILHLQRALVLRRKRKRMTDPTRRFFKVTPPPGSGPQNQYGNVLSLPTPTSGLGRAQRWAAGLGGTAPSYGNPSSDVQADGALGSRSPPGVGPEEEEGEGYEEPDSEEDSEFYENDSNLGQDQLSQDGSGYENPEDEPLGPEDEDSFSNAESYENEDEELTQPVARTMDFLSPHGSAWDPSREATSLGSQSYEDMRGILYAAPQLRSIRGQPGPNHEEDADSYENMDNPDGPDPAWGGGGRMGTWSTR

Substance: CD19 CAR with the IgG4 CH2CH3 as spacer domain (from UniProt P01861 99-327)
killing of REH cells at 0.1:1 effector to target cell ratio (CD19): 48.9%

percent positive cells before MACS [1]: 61.6%
percent positive cells in flow through [1]: 47.6%
percent positive cells before MACS [2]: 78.4%
percent positive cells in flow through [2]: 67.1%
percent positive cells before MACS [3]: 65.5%
percent positive cells in flow through [3]: 41.1%
percent positive cells before MACS [4]: 64.3%
percent positive cells in flow through [4]: 47%
percent positive cells before MACS [5]: 68.7%
percent positive cells in flow through [5]: 68.1%
Substance: CD34 monoclonal antibody QBend10

percent positive cells before MACS [6]: 51.4%
percent positive cells in flow through [6]: 49.7%
percent positive cells before MACS [7]: 60.1%
percent positive cells in flow through [7]: 57.2%
Substance: CD271 monoclonal antibody ME20.4

— patent US20180094044A1
